Reference: US20110286916A1 (published 2011)
Changes are numbered by the printed parent chain.

B1: hN1S3-153 (scFv, V domains shown)
VH: QVQLQESGGGLVQPGGSLSLSCATSGFTFGNYVMRWVRQAPGKGLEWVSTITEGGGDFIYYADSVKGRFAISRDNSKSTVYLHMNGLRVEDTAVYYCAKSGGDDNSNYNFEYWGQGTLVTVSS
VL: QAVLTQPSSVSGAPGQRVIISCTGTSSNTGAGYYVNWYQQLPGAAPKVLIFGNDNRPSGVPDRFSGAKSGTSASLAITGLQAEDEADYYCQSYDRSLSGWVFGGGTKLTVL
notes: phage scFv
B2: hN1S3-088 (scFv, V domains shown)
VH: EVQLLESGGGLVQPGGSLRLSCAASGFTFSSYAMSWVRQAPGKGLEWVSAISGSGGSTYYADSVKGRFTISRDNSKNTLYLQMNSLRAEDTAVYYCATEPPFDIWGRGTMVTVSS
VL: QSVLTQPPSVSGTPGQRVTISCSGSSSNIGNDVVNWYQQLPGTAPKLLIYNDYQRPSGVSDRFSGSKSGTSAYLAISGLQSEDEADYHCAVWDDSLDGWVFGGGTKLTVL
notes: phage scFv
B3: hN1S3-003 (scFv, V domains shown)
VH: EVQLVQSGPEVKKPGTSVKVSCKASGFTFTNSAVQWVRQARGQRLEWIGWIVVGSGNTNYAQKFQERVTITRDMSTSTAYMELSSLKSEDTAVYYCVADTVYWGQGTLVTVSS
VL: not shown
notes: phage scFv
B4: hN1S3-040 (scFv, V domains shown)
VH: B3 VH with N31S, K87R, Q105R, L108T
VL: QSVLTQPPSASGTPGQGVTISCSGSSSNIGRNSVNWYQQLPGTAPKLLIYGDNQRPSGVPDRFSGSKPGTSASLAISGLQSDDEAHYYCAAWDDSLNGWVFGGGTKVTVL
notes: phage scFv
B5: N1wc11 (scFv, V domains shown)
VH: B3 VH with T58I, Q105R, L108M
VL: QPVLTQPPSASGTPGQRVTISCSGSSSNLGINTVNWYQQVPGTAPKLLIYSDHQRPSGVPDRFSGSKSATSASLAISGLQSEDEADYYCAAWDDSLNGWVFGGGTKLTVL
notes: phage scFv
B6: hN1S3-002 (scFv, V domains shown)
VH: GVQLVQSGAEVKKPGASVKVSCKASGYTFTDYYVHWVRQAPGQGPEWMGWINPNNGGTKYAQKFQGRVTMTTDTSTSTAYMELRSLRSDDTALYYCARDLLPYYGDYRADKIDDFDIWGRGTLVTVSS
VL: QSVLTQPPSASGTPGQRVTISCSGSSSNIGSNTVNWYQRLPGAAPQLLIYNNDQRPSGIPDRFSGSKSGTSGSLVISGLQSEDEADYYCASWDDSLNGRVFGGGTKLTVL
notes: phage scFv
B7: hN1S3-107 (scFv, V domains shown)
VH: EVQLVQSGPEVKKPGASVKVSCKASGYTFTDYFLNWVRQAPGQGLEWIGWINPNTGGTNYAQNFQGRVTVTRDASISTAYMELRSLTSADTAIYYCARGAYDYVWGSHRYVADAFDIWGQGTLVTVSS
VL: B6 VL
notes: phage scFv
B8: hN1S3-087 (scFv, V domains shown)
VH: QVQLVQSGAEVKKPGASVRISCKTSGFTFTSYFIHWVRQAPGQRPEWMGVINPSRGNADYAPRFRGRVTMTRDKSTHTVYMDLKSLRSDDAAIYYCARDRLGGLLDYYDSSDSSKNFDAFDFWGQGTLVTVSS
VL: NFMLTQPHSVSESPGKTVTISCTRSSGSIGSSYVQWYQQRPGTSPVTIIYEDSQRPSGVPDRFSGSIDNSANSASLTISGLKTEDEADYYCQSYDANNRVFGGGTKLTVL
notes: phage scFv
B9: hN1S3-190 (scFv, V domains shown)
VH: B8 VH
VL: SSELTQDPAVSVALGQTVRITCQGDSLRSNYPSWYQQKPGQAPLLVIYSENRRPSGIPDRFSASRSGNTASLTITGAQAEDEADYYCHSRGSSGNHKVFGGGTQLTVL
notes: phage scFv
B10: hN1S3-112 (scFv, V domains shown)
VH: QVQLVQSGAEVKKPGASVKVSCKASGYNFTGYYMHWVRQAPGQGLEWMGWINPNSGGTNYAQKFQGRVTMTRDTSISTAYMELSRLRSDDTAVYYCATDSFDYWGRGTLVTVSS
VL: LPVLTQPPSASGTPGQRVTISCSGSSSNIGNNYVYWYQQLPGTAPKLLIYRNNQRPSGVPDRFSASKSGTSASLVISGIRSEDEAEYYCGGWDDSLSGQVVFGGGTKLTVL
notes: phage scFv
B11: hN1S3-030 (scFv, V domains shown)
VH: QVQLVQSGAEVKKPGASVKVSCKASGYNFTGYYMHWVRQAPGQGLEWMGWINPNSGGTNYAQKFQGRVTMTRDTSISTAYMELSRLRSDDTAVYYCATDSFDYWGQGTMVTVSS
VL: QSVLTQPPSASGTPGQRVSISCSGSSSNIGSNYVYWYQQLPGTAPKVLVYRNNQRPSGVSDRFSGSKYGTSASLAISGLRSEDEADYYCGSWDDSLSGVVFGGGTKVTVL
notes: phage scFv
B12: hN1S3-007 (scFv, V domains shown)
VH: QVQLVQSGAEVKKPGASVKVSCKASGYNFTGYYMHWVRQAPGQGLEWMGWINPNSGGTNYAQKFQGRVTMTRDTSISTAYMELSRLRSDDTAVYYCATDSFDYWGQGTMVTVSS
VL: QAVLTQPSSVSGTPGQRVTMSCSGGRSNIGSNAVNWYQQFPGTAPKLLMYNTNQRPSGVPGRFSGSKSGASASLAISGLQSDDEADYYCSSWDDSLNGLEFGGGTKLTVL
notes: phage scFv
B13: N1wc266 (scFv, V domains shown)
VH: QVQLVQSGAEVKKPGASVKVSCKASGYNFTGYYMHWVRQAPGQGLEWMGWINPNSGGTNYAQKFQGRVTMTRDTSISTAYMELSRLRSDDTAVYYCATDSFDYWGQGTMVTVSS
VL: B12 VL with T108E, V109I, L110K
notes: phage scFv
B14: hN1S3-092 (scFv, V domains shown)
VH: EVQLVQSGAEVKKPGASVKVSCKASGYNFTGYYMHWVRQAPGQGLEWMGWINPNSGGTNYAQKFQGRVTMTRDTSISTAYMELSRLRSDDTAVYYCATDSFDYWGQGTLVTVSS
VL: QSVLTQPPSASGTPGQRVTISCSGSSSNIGANYVYWYQQLPGTAPKLLIYKNDQRPSGVPDRFSGSKSGTSASLAISGLRSEDEADYYCAAWDDSLSGLVFGGGTKVTVL
notes: phage scFv
B15: hN1S3-136 (scFv, V domains shown)
VH: B14 VH with E1Q, V5Q, Q6E, Q106R, L109T
VL: QAVLTQPSSESGTPGQRVTISCSGTTSNIGDNTVTWYQQLPGTAPKLLIYSNTQRPSGVPARFSGSKSGTSASLAISGLQSGDEADYYCAAWDDSRNGYVFGTGTKLTVL
notes: phage scFv
B16: hN1S3-177 (scFv, V domains shown)
VH: B14 VH with T58A, Q106R
VL: B14 VL with S2A, P8S, A31T, Q39H, T43M, I49L, K51S, D53N, T70P, V107L
notes: phage scFv
B17: hN1S3-053 (scFv, V domains shown)
VH: B14 VH with Q106R, L109T
VL: QAVLTQPSSVSGAPGQRVTISCTGSRSNIGAGYDVHWYQQLPGTAPKLLIYGNSNRPSGVPDRFSGSKSGTSASLAITGLQAEDEADYYCQSYDSSLSGSVFGGGTKLTVL
notes: phage scFv
B18: hN1S3-127 (scFv, V domains shown)
VH: B14 VH
VL: QSVLTQPPSVSGAPGQRVTISCSGSTSNIGGNPVTWYQQFPGTAPKLLVYRDNQRPSGVADRFSGSRSGTSASLAISGLQSEDEADFYCASWDDSLGGVVFGGGTKLTVL
notes: phage scFv
B19: hN1S3-006 (scFv, V domains shown)
VH: B14 VH with E1Q, M34I, T69I, Q106R
VL: QAVLTQPSSASGTAGQRVTISCSGSNSNIGSNTVNWYQQLPGTTPKLLIYSNNERPSGVPDRFSGSKSGTSASLAISGLQSDDEADYYCAAWDDSLNGYVFGTGTKVTVL
notes: phage scFv
B20: hN1S3-135 (scFv, V domains shown)
VH: B14 VH with Q106K
VL: LPVLTQPPSVSEAPRQRVTISCSGSSFNIGNNAVNWYQQLPGKAPKLLIYYDDLLPSGVSDRFSGSKSGTSASLAISGLQSEDEADYYCAAWDDSLNAVVFGGGTKVTVL
notes: phage scFv
B21: hN1S3-182 (scFv, V domains shown)
VH: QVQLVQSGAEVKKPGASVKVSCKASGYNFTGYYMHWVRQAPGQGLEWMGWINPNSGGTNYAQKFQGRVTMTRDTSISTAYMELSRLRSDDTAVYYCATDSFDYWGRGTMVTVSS
VL: B17 VL with R26S, A31S, G32P, H36N, L41F, S54I, S92T, S96T, S98N, S100A
notes: phage scFv
B22: hN1S3-095 (scFv, V domains shown)
VH: B14 VH with Q43R
VL: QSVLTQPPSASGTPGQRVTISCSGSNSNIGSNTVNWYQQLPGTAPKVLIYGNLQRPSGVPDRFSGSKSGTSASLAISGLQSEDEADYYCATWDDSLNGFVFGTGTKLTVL
notes: phage scFv
B23: hN1S3-124 (scFv, V domains shown)
VH: B14 VH with Q106R, L109T
VL: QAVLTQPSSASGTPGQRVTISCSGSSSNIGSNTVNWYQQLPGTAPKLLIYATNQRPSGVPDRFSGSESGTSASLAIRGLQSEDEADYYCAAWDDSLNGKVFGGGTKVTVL
notes: phage scFv
B24: hN1S3-032 (scFv, V domains shown)
VH: B14 VH with Q106K
VL: B17 VL with R26S, Q39R, I50L, S54D, T71A, Q81R, E83D, L108V
notes: phage scFv
B25: hN1S3-181 (scFv, V domains shown)
VH: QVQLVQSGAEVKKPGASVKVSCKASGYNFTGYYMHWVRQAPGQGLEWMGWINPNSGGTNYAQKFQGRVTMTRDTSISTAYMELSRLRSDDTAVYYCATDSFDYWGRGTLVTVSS
VL: SYVLTQPPSASGTPGQRVTISCSGSSPNIGSNTVNWYQQLPGTAPKLLIYTNNQRPSGVPDRFSGSKSATSASLAISGLQFDDEADYFCAAWDDSLLGVVFGGGTKVTVL
notes: phage scFv
B26: hN1S3-096 (scFv, V domains shown)
VH: B14 VH with Q106R, L109T
VL: QPVLTQPPSASGTPGQRVTISCSGSSSNIASNSVYWYQQLPGTAPKLLIYRNNQRPSGVPDRFSGSQSGASASLAISGLRSEDEADYYCAAWDDNLYGVVFGGGTKLTVL
notes: phage scFv

What was measured:
[1] = biological target: T1, human full-length Notch3 with C-terminal FLAG tag, stably expressed on 293 FlpIn (TREx) cells (human, UniProt Q9UM47 40-2321); assay: FACS, phage scFv
T1 construct: whole, on cells; made by the same strategy as the Notch1 line; also called 293-N3; hN3

[2] = biological target: T2, human full-length Notch1 with C-terminal FLAG tag, stably expressed on 293 FlpIn (TREx) cells (human, UniProt P46531 19-2555); assay: FACS, phage scFv
T2 construct: tetracycline/doxycycline-induced expression from pcDNA5/FRT/TO-HN1+FLAG; also called hN1; 293_N1

Binder | binding result [1] | binding result [2]
B1 | binds | binds
B2 | binds | binds
B3 | binds | binds
B4 | binds | binds
B5 | binds | binds
B6 | binds | binds
B7 | binds | binds
B8 | binds | binds
B9 | binds | binds
B10 | binds | binds
B11 | binds | binds
B12 | binds | binds
B13 | binds | binds
B14 | binds | binds
B15 | binds | binds
B16 | binds | binds
B17 | binds | binds
B18 | binds | binds
B19 | binds | binds
B20 | binds | binds
B21 | binds | binds
B22 | binds | binds
B23 | binds | binds
B24 | binds | binds
B25 | binds | binds
B26 | binds | binds
